Data set [1] addresses T1, hPolεCD (DNA polymerase ε catalytic domain, exo-) (Homo sapiens, UniProt Q07864 27-1172, D275N;E277Q;del185-209). Put plainly: BLI; 100 mM NaCl, no dTTP/Mg2+; BLI (Octet K2): 30 mM Tris-Hepes pH 7.8, 100-150 mM NaCl, 2 mM TCEP, 0.002% Tween 20, 23 °C; EMSA: 20 mM Tris-Hepes pH 7.8, 100 mM NaCl, 2% glycerol, 2 mM TCEP, 0.2 mg/mL BSA, room temperature. The note with it: protein: recombinant; tags: none in final protein (N-terminal His6-Sumo cleaved); label: 5' BiotinTEG on template; template 5' overhang 9 nt and 3' overhang 3 nt. A general note: BLI is a label-free optical method that tracks binding on a fibre tip over time.

Data set [2] deals with T1, hPolεCD (DNA polymerase ε catalytic …). Put plainly: EMSA; 100 mM NaCl, 0.5 µM DNA; active fraction titration (55.4 ± 4.3%); BLI (Octet K2): 30 mM Tris-Hepes pH 7.8, 100-150 mM NaCl, 2 mM TCEP, 0.002% Tween 20, 23 °C; EMSA: 20 mM Tris-Hepes pH 7.8, 100 mM NaCl, 2% glycerol, 2 mM TCEP, 0.2 mg/mL BSA, room temperature. The note with it: protein: recombinant; tags: none in final protein (N-terminal His6-Sumo cleaved); label: 5' Cy3 on primer; template 5' overhang 5 nt.

Data set [3] has the same target. Put plainly: BLI; 100 mM NaCl, 50 µM dTTP, 5 mM Mg2+; BLI (Octet K2): 30 mM Tris-Hepes pH 7.8, 100-150 mM NaCl, 2 mM TCEP, 0.002% Tween 20, 23 °C; EMSA: 20 mM Tris-Hepes pH 7.8, 100 mM NaCl, 2% glycerol, 2 mM TCEP, 0.2 mg/mL BSA, room temperature. The note with it: protein: recombinant; tags: none in final protein (N-terminal His6-Sumo cleaved); label: 5' BiotinTEG on template; template 5' overhang 9 nt and 3' overhang 3 nt.

Data set [4] has the same target. Put plainly: BLI; 125 mM NaCl, no dTTP/Mg2+; BLI (Octet K2): 30 mM Tris-Hepes pH 7.8, 100-150 mM NaCl, 2 mM TCEP, 0.002% Tween 20, 23 °C; EMSA: 20 mM Tris-Hepes pH 7.8, 100 mM NaCl, 2% glycerol, 2 mM TCEP, 0.2 mg/mL BSA, room temperature. The conditions noted are these: protein: recombinant; tags: none in final protein (N-terminal His6-Sumo cleaved); label: 5' BiotinTEG on template; template 5' overhang 9 nt and 3' overhang 3 nt.

For data set [5] the target is unchanged. Put plainly: BLI; 150 mM NaCl, no dTTP/Mg2+; BLI (Octet K2): 30 mM Tris-Hepes pH 7.8, 100-150 mM NaCl, 2 mM TCEP, 0.002% Tween 20, 23 °C; EMSA: 20 mM Tris-Hepes pH 7.8, 100 mM NaCl, 2% glycerol, 2 mM TCEP, 0.2 mg/mL BSA, room temperature. The conditions noted are these: protein: recombinant; tags: none in final protein (N-terminal His6-Sumo cleaved); label: 5' BiotinTEG on template; template 5' overhang 9 nt and 3' overhang 3 nt.

From PMC9205888, “Efficient discrimination against RNA-containing primers by human DNA polymerase ε” come the findings set out here.

T1 sequence (Q07864 other isoform, or with tags, fused parts or gaps D275N;E277Q;del185-209): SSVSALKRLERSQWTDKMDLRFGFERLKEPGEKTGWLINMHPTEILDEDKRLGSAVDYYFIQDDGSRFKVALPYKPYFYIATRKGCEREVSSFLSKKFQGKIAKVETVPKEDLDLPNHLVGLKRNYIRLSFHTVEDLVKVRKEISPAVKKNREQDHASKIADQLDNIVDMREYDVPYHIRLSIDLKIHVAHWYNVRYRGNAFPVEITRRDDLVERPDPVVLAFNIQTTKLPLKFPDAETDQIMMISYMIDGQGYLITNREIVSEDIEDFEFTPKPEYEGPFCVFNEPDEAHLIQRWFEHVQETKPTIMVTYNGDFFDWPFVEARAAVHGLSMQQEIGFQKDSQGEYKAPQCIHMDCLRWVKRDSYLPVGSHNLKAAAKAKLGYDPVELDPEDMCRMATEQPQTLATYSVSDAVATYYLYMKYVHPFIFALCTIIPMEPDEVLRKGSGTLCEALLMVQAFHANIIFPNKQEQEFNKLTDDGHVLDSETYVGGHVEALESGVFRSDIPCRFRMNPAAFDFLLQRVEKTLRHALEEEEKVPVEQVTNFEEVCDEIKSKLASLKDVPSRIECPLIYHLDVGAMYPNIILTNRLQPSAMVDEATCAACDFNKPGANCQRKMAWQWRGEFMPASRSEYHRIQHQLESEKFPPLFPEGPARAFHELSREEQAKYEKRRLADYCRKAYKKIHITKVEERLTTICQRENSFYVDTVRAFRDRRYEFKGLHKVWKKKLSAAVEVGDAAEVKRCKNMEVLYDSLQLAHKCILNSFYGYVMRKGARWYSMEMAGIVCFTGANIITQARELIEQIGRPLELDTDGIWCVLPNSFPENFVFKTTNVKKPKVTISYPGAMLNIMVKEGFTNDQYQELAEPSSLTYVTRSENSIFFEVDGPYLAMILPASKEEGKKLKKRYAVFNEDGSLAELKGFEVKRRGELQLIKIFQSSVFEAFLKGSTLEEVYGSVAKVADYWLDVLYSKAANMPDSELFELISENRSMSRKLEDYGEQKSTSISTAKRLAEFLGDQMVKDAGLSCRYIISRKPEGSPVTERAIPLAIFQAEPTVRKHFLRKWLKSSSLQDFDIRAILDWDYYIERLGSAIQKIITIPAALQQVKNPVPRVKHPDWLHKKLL

B1: R10-D1 template:primer (mixed)
DNA: AATACATAAGCGCTCCAGGCAAT
RNA: GCCUGGAGCGC
modifications: primer nt 1-10 RNA, nt 11 2',3'-dideoxy-C
As usually defined, the Kd is the equilibrium constant for the complex coming apart. As to B1, the Kd in data set [1] came to 73 ± 14 nM.

B2: R8-D3 template:primer (mixed)
DNA: AATACATAAGCGCTCCAGGCAAT
RNA: GCCUGGAGCGC
modifications: primer nt 1-8 RNA, nt 9-11 DNA, 3' ddC
As to B2, the dissociation constant (Kd) in data set [1] is 62.5 ± 6.1 nM.

B3: EMSA D15 template:primer (dsDNA)
DNA 1: ATTATGGCAGCTCGGAGTCC
DNA 2: GGACTCCGAGCTGCC
Regarding B3, the binding result in data set [2] is reported as “binds”.

B4: D10-R1 template:primer (mixed)
DNA 1: AATACATAAGCGCTCCAGGCAAT
DNA 2: GCCTGGAGCGC
modifications: primer nt 1-10 DNA, nt 11 3'-deoxy-C (2'-OH)
Regarding B4, the equilibrium dissociation constant (Kd) in data set [1] stood at 45.6 ± 6.1 nM.

B5: R11 template:primer (DNA:RNA)
DNA: AATACATAAGCGCTCCAGGCAAT
RNA: GCCUGGAGCGC
modifications: RNA primer
Consider B5, for which the Kd in data set [1] was 65.8 ± 8.8 nM.

B6: R4-D7 template:primer (mixed)
DNA: AATACATAAGCGCTCCAGGCAAT
RNA: GCCUGGAGCGC
modifications: primer nt 1-4 RNA, nt 5-11 DNA, 3' ddC
As for B6, the equilibrium dissociation constant (Kd) in data set [1] is 58.6 ± 1.3 nM; in data set [3], 83 ± 3.3 nM.

B7: D11 template:primer (dsDNA)
DNA 1: AATACATAAGCGCTCCAGGCAAT
DNA 2: GCCTGGAGCGC
modifications: primer 3'-terminal 2',3'-dideoxy-C
For B7, the Kd in data set [1] amounted to 61.4 ± 12 nM; in data set [4], 532 ± 53 nM; in data set [5] it was 1520 ± 91 nM; in data set [3], 120 ± 11 nM.

B8: R6-D5 template:primer (mixed)
DNA: AATACATAAGCGCTCCAGGCAAT
RNA: GCCUGGAGCGC
modifications: primer nt 1-6 RNA, nt 7-11 DNA, 3' ddC
B8: the Kd in data set [1] came to 69.8 ± 6.4 nM.
